The values below come from patent US20230322857A1, “RECOMBINANTLY ENGINEERED POLYPEPTIDES CAPABLE OF RECYCLING NONCANONICAL COFACTORS” (The Regents of the University of California, priority 2022, published 2023).

The test system of one data set is E. coli SHuffle strain. Briefly: GDH-Gor coupled growth rescue in SHuffle strain. The format is cell-based, Escherichia coli. The following applies: 0.5 mM diamide; for growth of SHuffle strain harboring the Gor variant: varying NMN^+ concentrations. Here is the method: Culture conditions for GDH-Gor coupled growth rescue in SHuffle strain. The electro-competent cells of SHuffle harboring pLZ311 or pLZ312 were made as follows: The SHuffle cells were cultured in 200 mL SOB media with spectinomycin at 30° C. with shaking until OD600 reached 0.4-0.6. The culture was chilled on ice for 15 min and the cells were pelleted at 4° C., 4,000×g. Collected cells were washed with 10% glycerol in water (sterile, ice cold) and resuspended with 5 mL of 10% glycerol in water (sterile, ice cold), and stored as 50 μL aliquots at −80° C.
Glucose facilitator (encoded by glf) was used for uptake of unphosphorylated glucose into the cells. The co-transformation of Bs gdh and Zm glf was performed as follows: Thaw SHuffle/pLZ311 or SHuffle/pLZ312 electro-competent cells on ice, add 1 μL Bs gdh (pEK101 or pLZ210) and 1 μL Zm glf(pSM109) plasmid DNA to 50 μL competent cells, mix, and electroporate. Cells were recovered with 1 mL SOC at 37° C. with shaking for 1 h. The cells were added to 10 mL 2×YT with 10 g/L glucose, 0.5% arabinose, kanamycin, chloramphenicol, and ampicillin. After incubation at 37° C. with shaking for 10 h, 1 mL cells were washed 3 times and re-suspended in M9 buffer (1×BD Difco M9 Salts). Targeted dilutions after cells reached density of OD600 0.6 were prepared in M9 buffer and 5 μL aliquots were dispensed in series on an agar plate of M9 selection media containing 0.5 mM diamide, 1 g/L yeast extract, 10 g/L glucose, 0.5% arabinose, 0.5 mM IPTG, ampicillin, kanamycin, chloramphenicol and serial NMN concentrations of 0, 2, 4 and 6 mM. Selection plates were incubated at 37° C., and photos were taken to document growth progress.

Data set [1] in a line: Steady state kinetics of glutathione reductase (Gor) variants with NMNH. The format is biochemical. The following applies: for Km: enzyme could not be saturated, 96 mM Tris-Cl pH 7.5, 2.5 mM GSSG. As to the method: (§1) Expression and Purification of Gor Wild-type and Variants. E. coli Gor (EC 1.6.4.2) is a homo-dimeric flavoenzyme containing 450 amino acid residues with 1 FAD per subunit. To prevent interference from endogenous protein, Gor wild-type and variants were expressed using E. coli Δgor::kan strain containing pQElac based plasmids encoding for the Gor wild-type or variants. 1% (v/v) cells from an overnight culture were cultured in 2×YT media with 200 μg/mL ampicillin and 50 μg/mL kanamycin in shake flasks at 37° C. in a rotary shaker to an OD600 of 0.4-0.6. The cultures were then induced with 0.5 mM IPTG and incubated at 30° C. with shaking for 24 h. The cells were harvested with centrifugation and lysed by bead beating with Zymo His Binding Buffer (Zymo Research, CA, USA). Protein purification was performed with Zymo His-Spin Protein miniprep purification kit according to the manufacturer's instructions. The concentrations of purified protein were quantified by Coomassie dye—based assays (Bradford) using BSA (Bovine Serum Albumin) as standards.
(§2) Specific Activity and Steady State Kinetic Analyses for Gor Wild-type and Variants. The specific activity and kinetic parameters of Gor with the different cofactors, shown in FIG. 1, were measured using the following methods. For measuring the specific activity with NMNH, the 100 μL reaction mixture contained 96 mM potassium phosphate buffer pH 7.5, 2.5 mM GSSG and 0.8 mM NMNH. NMNH was generated using methods described in Black et al. (Nat. Chem. Biol. 16:87-94 (2020). Briefly, 4 mM NMN^+ was incubated in a solution containing 50 mM Tris-Cl at pH 8.5, 0.2 mM EDTA, 50 mM Na2HPO4, 5 mM D-glyceraldehyde-3-phosphate, and 28 μM of purified E. coli glyceraldehyde-3-phosphate dehydrogenase. The reaction was incubated at 30° C. for 8 h. The protein was removed by an Amicon Ultra 3 K filter, and the flow-through was dried under vacuum. Assays investigating the steady-state kinetic parameters were completed with 100 μL reaction mixtures containing 96 mM Tris-Cl buffer pH 7.5, 2.5 mM GSSG and varied cofactor concentrations from 0.01 mM to 1.6 mM. The assay was started by addition of 10 μL of purified protein at appropriate concentration at 25° C. The kinetic parameters were measured by monitoring the NAD(P)H consumption at 340 nm in 96-well plate. Data was fit to the Michaelis-Menten equation to generate estimates of apparent catalytic efficiency (kcat/Km). The results are the average of three independent experiments.

A short description of data set [2]: Steady state kinetics of glutathione reductase (Gor) variants with NADPH. The format is biochemical. Here is the method:
as §1
as §2, with “Assays investigating the steady-state kinetic parameters were completed with 100 μL reaction mixtures containing 96 mM Tris-Cl buffer pH 7.5, 2.5 mM GSSG and varied cofactor concentrations from 0.01 mM to 1.6 mM.” left out

Data set [3] is described as follows: Specific activity of Gor variants with NMNH. It counts as biochemical. Here is the method: as §1
Specific Activity and Steady State Kinetic Analyses for Gor Wild-type and Variants. The specific activity and kinetic parameters of Gor with the different cofactors, shown in FIG. 1, were measured using the following methods. For measuring the specific activity with NMNH, the 100 μL reaction mixture contained 96 mM potassium phosphate buffer pH 7.5, 2.5 mM GSSG and 0.8 mM NMNH. […] The kinetic parameters were measured by monitoring the NAD(P)H consumption at 340 nm in 96-well plate. […]

The nature of data set [4]: Steady state kinetics of glutathione reductase (Gor) variants with NADH. It counts as biochemical. Conditions: for Km: enzyme could not be saturated, 96 mM Tris-Cl pH 7.5, 2.5 mM GSSG. Here is the method:
as §1, §2

The conditions of data set [5]: previously identified variant; cited from earlier work.
The mark [6] stands for this setting: 96 mM Tris-Cl buffer pH 7.5, 2.5 mM GSSG, varied cofactor concentrations, n = 3.

Residue numbers refer to the chain shown, from its start. Names and notes keep the numbering of the source. “Also recorded” adds a separate entry of the source.

B1: wild type Bs GDH: wild type Bacillus subtilis glucose dehydrogenase, reduces NAD(P)^+ but not NMN^+ (protein, UniProt P12310 1-261, looked up)
Glucose 1-dehydrogenase: MYPDLKGKVVAITGAASGLGKAMAIRFGKEQAKVVINYYSNKQDPNEVKEEVIKAGGEAVVVQGDVTKEEDVKNIVQTAIKEFGTLDIMINNAGLENPVPSHEMPLKDWDKVIGTNLTGAFLGSREAIKYFVENDIKGNVINMSSVHEVIPWPLFVHYAASKGGIKLMTETLALEYAPKGIRVNNIGPGAINTPINAEKFADPKQKADVESMIPMGYIGEPEEIAAVAAWLASKEASYVTGITLFADGGMTQYPSFQAGRG
On to B1, for which the “cell growth of SHuffle strain harboring Gor Ortho with the NMN^+-reducing enzyme” value in the data set with E. coli SHuffle strain (NMN^+ 0, 2, 4 and 6 mM) is recorded as “did not support cell growth”.

B2: Gor I178T (protein, UniProt P06715 1-450, looked up, variant I178T)
Glutathione reductase: MTKHYDYIAIGGGSGGIASINRAAMYGQKCALIEAKELGGTCVNVGCVPKKVMWHAAQIREAIHMYGPDYGFDTTINKFNWETLIASRTAYIDRIHTSYENVLGKNNVDVIKGFARFVDAKTLEVNGETITADHILIATGGRPSHPDIPGVEYGIDSDGFFALPALPERVAVVGAGYTAVELAGVINGLGAKTHLFVRKHAPLRSFDPMISETLVEVMNAEGPQLHTNAIPKAVVKNTDGSLTLELEDGRSETVDCLIWAIGREPANDNINLEAAGVKTNEKGYIVVDKYQNTNIEGIYAVGDNTGAVELTPVAVAAGRRLSERLFNNKPDEHLDYSNIPTVVFSHPPIGTVGLTEPQAREQYGDDQVKVYKSSFTAMYTAVTTHRQPCRMKLVCVGSEEKIVGIHGIGFGMDEMLQGFAVALKMGATKKDFDNTVAIHPTAAEEFVTMR
As usually defined, the Km is the substrate concentration at which the rate is half of its maximum. On to B2, for which the Km was above 1500 µM in data set [1], 40 ± 10 µM in data set [2] (setting [6]) and above 1500 µM in data set [4]. This molecule also registered an NADPH kcat in data set [2] (setting [6]) of 31 ± 1 s⁻¹. Moreover, the “enhanced NMNH-dependent activity compared to the wild type” value in data set [3] (0.8 mM NMNH, 2.5 mM GSSG, vs wild type Ec Gor) turned out to be 4 fold.

B3: Gor Ortho: recombinantly engineered E. coli glutathione reductase with I178T, R198M, R204L (SEQ ID NO:8), NMNH-specific (protein)
chain: B2 Glutathione reductase with R198M, R204L
Regarding B3, the “cofactor specificity switch from native cofactor NADPH to NMNH” value in data set [1] (based on catalytic efficiency measured in vitro) is listed as 60,000 fold. In addition, the Km in data set [1] is above 1500 µM; in data set [2] (enzyme could not be saturated, 96 mM Tris-Cl pH 7.5, 2.5 mM GSSG) it was above 1500 µM; in data set [4], above 1500 µM. The “catalytic efficiency (kcat/Km) for NMNH, fold higher than the wild type” value in data set [1] (vs Ec Gor wild type) was around 4 fold. Also, the “saturation of activity with natural cofactors” value in data set [2] (concentrations up to 4 mM NAD(P)H) is “could not be saturated”. In addition, the “reduction of catalytic efficiency for NADPH compared to Ec Gor wild type” value in data set [2] (vs Ec Gor wild type) is recorded as ~15,000 fold. For the same molecule, the “reduction of catalytic efficiency for NADPH compared to I178T single mutant” value in data set [2] (vs I178T single mutant) is recorded as ~9,000 fold. In data set [3] (vs Ec Gor I178T), the “change in NMNH-dependent activity on adding R198M-R204L to Ec Gor I178T” value is “only a modest decrease”. Besides, the “growth of SHuffle strain harboring the Gor variant” value in the data set with E. coli SHuffle strain is “supporting growth only with NMN^+ cycling; also recorded: only grows with NMNH regeneration”. The “decrease of catalytic efficiency for NADH by the additional R198M-R204L mutations” value in data set [4] (vs I178T) was around 2 fold.

B4: R198M-R204L: previously identified Ec Gor variant with R198M-R204L double mutations (protein, UniProt P06715 1-450, looked up, variant R198M R204L)
Glutathione reductase: B2 Glutathione reductase with T178I, R198M, R204L
With B4, the NADPH-dependent activity result in data set [5] is listed as “almost completely abolished”.

B5: Gor: wild type glutathione reductase from Escherichia coli (SEQ ID NO:7) (protein, listed as Escherichia coli)
chain: B2 Glutathione reductase with T178I
Consider B5, for which the Km in data set [1] was above 1500 µM; in data set [2] (setting [6]) it was 60 ± 10 µM; in data set [4] it was above 1500 µM. In data set [2] (setting [6]), this molecule returned an NADPH kcat of 84 ± 7 s⁻¹. In addition, the “growth of SHuffle strain harboring the Gor variant” value is reported as “robust growth independent of NMN^+ supplementation” in the data set on E. coli SHuffle strain (listed as wild type Ec Gor) and “no growth defects” in the data set on E. coli SHuffle strain (listed as wild type Gor).

B6: G174H: Ec Gor single-mutation variant predicted to make salt bridge with the NMNH phosphate group (protein, UniProt P06715 1-450, looked up, variant G174H)
Glutathione reductase: B2 Glutathione reductase with G174H, T178I
On to B6, for which the “NMNH-dependent activity (in words) compared to the wild type” value in data set [3] (vs wild type Ec Gor) is “enhanced NMNH-dependent activity”.
